Among the data in publication PMC11077948 are stoichiometry N values, retold here.

Experiment [1] concerns the target S. mutans CLC^F F-/H+ antiporter encoded by ORF 1289 (Streptococcus mutans UA159). The experiment can be described thus: cross-linking; 0.2 mg/mL purified protein in detergent (DM) with 0.125% glutaraldehyde (~500-fold molar excess) at room temperature for the indicated times, quenched with 0.15 M Tris-HCl pH 7.5, SDS-PAGE; monomer and dimer bands.
The target in experiment [2] is S. mutans CLC^F homologue encoded by ORF 1290 (Streptococcus mutans UA159). The description is as above.

For the substance “S. mutans CLC^F F-/H+ antiporter encoded by ORF 1289 (natural protein)”, the stoichiometry N (in general, the number of molecules, sites or subunits per partner or assembly) in experiment [1] amounted to 2.
Substance “S. mutans CLC^F homologue encoded by ORF 1290 (natural protein)” yielded a stoichiometry N in experiment [2] of 2.
